# Test results reported in patent publication US7026443.
# Like-named read-outs stand apart in the source and are kept apart here.
# How the values were obtained:
# HLA-A*1101 (human) [1] = assay: competition with 125I-labeled standard peptide for purified HLA, gel filtration
# HLA-A*0301 (human) [2] = assay: as above
# HLA-A*0201 (human) = assay: competition with 125I-labelled standard peptide for purified HLA-A*0201, gel filtration
# HLA-A*1101 (human) [3] = biological target: HLA-A*1101 (human)
# HLA-A*0301 (human) [4] = biological target: HLA-A*0301 (human)
# HLA-A*0301 (human) [5] = biological target: HLA-A*0301 (human); remark: listed apart in the source
# HLA-A*1101 (human) [6] = assay: competition with 125I-labelled standard peptide for purified HLA-A*1101, gel filtration
binder,measurement,setting,value
ATMCKHYRR (modifications not checked) [HPV18 E1 position 413 peptide …],binding affinity ratio (IC50 of standard peptide / IC50 of test peptide),HLA-A*1101 (human) [1],0.28
"SMSQWIKYR (modifications not checked) [HPV16 E1 peptide … (position 421, 9 amino acids)]",relative binding ratio (IC50 of standard peptide / IC50 of test peptide),HLA-A*1101 (human) [1],0.028
same,relative binding ratio (IC50 of standard peptide / IC50 of test peptide),HLA-A*0301 (human) [2],0.69
PLNPAEKL (modifications not checked) [HPV18 E6 peptide PLNPAEKL (position 111)],relative binding ratio (IC50 of standard peptide / IC50 of test peptide),HLA-A*0201 (human),0.0001
FITFLGALK (modifications not checked) [HPV18 E1 position 460 peptide …],binding affinity ratio (IC50 of standard peptide / IC50 of test peptide),HLA-A*1101 (human) [1],0.037
same,binding affinity ratio (IC50 of standard peptide / IC50 of test peptide),HLA-A*0301 (human) [2],0.032
NSNAAAFLK (modifications not checked) [HPV33 E1 379 peptide … (SEQ ID NO: 10558)],binding affinity ratio (IC50 of standard peptide / IC50 of test peptide) (ratio relative to standard peptide),HLA-A*1101 (human) [3],0.37
same,binding affinity ratio (IC50 of standard peptide / IC50 of test peptide) (ratio relative to standard peptide),HLA-A*0301 (human) [4],0.0057
"QMSMSQWIK (modifications not checked) [HPV16 E1 peptide … (position 419, 9 amino acids)]",binding affinity ratio (IC50 of the standard peptide / IC50 of the test peptide),HLA-A*0301 (human) [5],0.0023
same,relative binding ratio (IC50 of standard peptide / IC50 of test peptide),HLA-A*1101 (human) [1],0.026
same,relative binding ratio (IC50 of standard peptide / IC50 of test peptide),HLA-A*0301 (human) [2],0.0023
"MSFLTALKR (modifications not checked) [HPV16 E1 peptide … (position 454, 9 amino acids)]",relative binding ratio (IC50 of standard peptide / IC50 of test peptide),HLA-A*1101 (human) [1],0.098
same,relative binding ratio (IC50 of standard peptide / IC50 of test peptide),HLA-A*0301 (human) [2],0.087
CMCCKCEA (modifications not checked) [HPV18 E7 peptide CMCCKCEA (position 63)],relative binding ratio (IC50 of standard peptide / IC50 of test peptide),HLA-A*0201 (human),0.0005
"TAAALYWYK (modifications not checked) [HPV16 E1 peptide … (position 315, 9 amino acids)]",relative binding ratio (IC50 of standard peptide / IC50 of test peptide),HLA-A*0301 (human) [2],0.78
ISLNSGQKK (modifications not checked) [HPV18 E1 position 116 peptide …],binding affinity ratio (IC50 of standard peptide / IC50 of test peptide),HLA-A*1101 (human) [6],0.0026
same,binding affinity ratio (IC50 of standard peptide / IC50 of test peptide),HLA-A*1101 (human) [1],0.0026
same,binding affinity ratio (IC50 of standard peptide / IC50 of test peptide),HLA-A*0301 (human) [2],0.0003
QMNMSQWIR (modifications not checked) [HPV18 E1 position 426 peptide …],binding affinity ratio (IC50 of standard peptide / IC50 of test peptide),HLA-A*1101 (human) [3],0.0023
same,binding affinity ratio (IC50 of standard peptide / IC50 of test peptide),HLA-A*0301 (human) [4],0.0011
GTGCNGWFYV (modifications not checked) [HPV16 E1 12 peptide …],relative binding ratio (IC50 of standard peptide / IC50 of test peptide),HLA-A*0201 (human),0.0006
GVLILALLR (modifications not checked) [HPV18 E1 position 279 peptide …],binding affinity ratio (IC50 of standard peptide / IC50 of test peptide),HLA-A*1101 (human) [6],0.14
same,binding affinity ratio (IC50 of standard peptide / IC50 of test peptide),HLA-A*1101 (human) [1],0.14
same,binding affinity ratio (IC50 of standard peptide / IC50 of test peptide),HLA-A*0301 (human) [2],0.0058
LVRNFKSDK (modifications not checked) [HPV18 E1 position 229 peptide …],binding affinity ratio (IC50 of standard peptide / IC50 of test peptide),HLA-A*1101 (human) [3],0.0002
same,binding affinity ratio (IC50 of standard peptide / IC50 of test peptide),HLA-A*0301 (human) [4],0.0005
FLQGSVICFV (modifications not checked) [HPV16 E1 493 peptide …],relative binding ratio (IC50 of standard peptide / IC50 of test peptide),HLA-A*0201 (human),0.23
TVLELTEV (modifications not checked) [HPV18 E6 peptide TVLELTEV (position 37)],relative binding ratio (IC50 of standard peptide / IC50 of test peptide),HLA-A*0201 (human),0.001
AAFGLTPSI (modifications not checked) [HPV16 E1 … (position 239)],relative binding ratio (IC50 of standard peptide / IC50 of test peptide),HLA-A*0201 (human),0.0012
DLRAFQQLFL (modifications not checked) [HPV18 E7 peptide … (position 82)],relative binding ratio (IC50 of standard peptide / IC50 of test peptide),HLA-A*0201 (human),0.001
RLQRRRETQV (modifications not checked) [HPV18 E6 peptide … (position 149)],relative binding ratio (IC50 of standard peptide / IC50 of test peptide),HLA-A*0201 (human),0.0001
"SVAALYWYR (modifications not checked) [HPV45 E1 peptide … (position 308, 9 amino acids)]",relative binding ratio (IC50 of standard peptide / IC50 of test peptide),HLA-A*1101 (human) [3],8.8
same,relative binding ratio (IC50 of standard peptide / IC50 of test peptide),HLA-A*0301 (human) [4],2.9
"FLKSNSQAK (modifications not checked) [HPV33 E1 385 peptide … (A03 supermotif peptide, 9 amino acids)]",relative binding ratio (IC50 of standard peptide / IC50 of test peptide),HLA-A*0301 (human) [4],0.0013
MLIQPPKLR (modifications not checked) [HPV18 E1 position 312 peptide …],binding affinity ratio (IC50 of standard peptide / IC50 of test peptide),HLA-A*1101 (human) [3],0.0014
same,binding affinity ratio (IC50 of standard peptide / IC50 of test peptide),HLA-A*0301 (human) [4],0.0005
NSNAAAFLK (modifications not checked) [HPV18 E1 position 393 peptide …],binding affinity ratio (IC50 of standard peptide / IC50 of test peptide),HLA-A*1101 (human) [3],0.37
same,binding affinity ratio (IC50 of standard peptide / IC50 of test peptide),HLA-A*0301 (human) [4],0.0057
"SVICFVNSK (modifications not checked) [HPV16 E1 peptide … (position 497, 9 amino acids)]",relative binding ratio (IC50 of standard peptide / IC50 of test peptide),HLA-A*1101 (human) [1],0.0002
same,relative binding ratio (IC50 of standard peptide / IC50 of test peptide),HLA-A*0301 (human) [2],0.0005
"RLKAICIEK (modifications not checked) [HPV16 E1 peptide … (position 109, 9 amino acids)]",relative binding ratio (IC50 of standard peptide / IC50 of test peptide),HLA-A*1101 (human) [1],0.051
same,relative binding ratio (IC50 of standard peptide / IC50 of test peptide),HLA-A*0301 (human) [2],0.084
